Measured values reported in PMC12212259 (2025).
Like-named read-outs stand apart in the source and are kept apart here. Blank lines part the entries; values can stand above or below the binder they belong to.

Experiments:
Assay in all cases: SPR
Nb6E-biotin [1] = target: T1, Nb6E-biotin (biotin at the C terminus (sortagging))
Nb6E-biotin [2] = target: T1, Nb6E-biotin; remark: listed apart in the source
Nb6E-biotin [3] = target: T1, Nb6E-biotin; remark: listed apart in the source
Nb127–biotin = Nb127–biotin (biotin at the C terminus (sortagging))
Nb127–biotin (biotin at the C terminus (sortagging)), sequence (VHH, as listed by the source): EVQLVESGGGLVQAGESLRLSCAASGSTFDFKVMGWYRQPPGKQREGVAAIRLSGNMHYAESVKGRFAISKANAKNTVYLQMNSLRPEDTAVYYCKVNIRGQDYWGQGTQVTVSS

T1 sequence (VHH, as listed by the source): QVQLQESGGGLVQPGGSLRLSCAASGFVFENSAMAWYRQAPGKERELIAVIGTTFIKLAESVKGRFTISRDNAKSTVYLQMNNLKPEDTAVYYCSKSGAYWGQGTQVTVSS

Kd (Nb6E-biotin [1]): 78.2 nM
Binder: QADQEAKEMARQIS [6E-M9]

Kd (Nb6E-biotin [2]): 15.2 nM
Binder: QADWEAKELARQIS [6E-W4]

Kd (Nb6E-biotin [3]): 4.2 nM
Binder: GGGQADQEAKELARQIS [G3-6E]

Kd (Nb6E-biotin [2]): 17.6 nM
Binder: QADQEAWELARQIS [6E-W7]

Kd (Nb6E-biotin [2]): 9.2 nM
Binder: QADQEAKWLARQIS [6E-W8]

Kd (Nb6E-biotin [1]): 159 nM
Binder: QADQEAKELARQIS [6E-WT peptide]

Kd (Nb127–biotin): 16.8 nM
Binder: SFEDFWKGED [127-tag peptide]
